Measured values as given in patent publication EP3470426A1 (Numab Therapeutics AG, dated 2019).
Where “and” joins values, the source holds several entries; their conditions need not be identical. Equal entries are not always repeated. Where two headings read alike, the source gives them in different places.

Legend:
human PD-L1 on cells [1] = target: T1, human PD-L1 on cells (human, UniProt Q9NZQ7 19-290); test: cell-based or functional assay
human PD-L1 on cells [2] = target: T1, human PD-L1 on cells; test: cell-based or functional assay; remark: listed apart in the source
human PD-L1 on cells [3] = target: T1, human PD-L1 on cells; test: cell-based or functional assay; remark: listed apart in the source
[4] = target: human PD-L1-Fc chimeric protein (human); test: SPR, PD-L1-Fc captured, binder injected
[5] = target: T2, CD137 on Jurkat NFkB reporter cells (human, UniProt Q07011 24-255); test: cell-based or functional assay
[6] = target: T2, CD137 on Jurkat NFkB reporter cells; test: cell-based or functional assay; remark: listed apart in the source
[7] = target: T2, CD137 on Jurkat NFkB reporter cells; test: cell-based or functional assay; remark: listed apart in the source
[8] = target: T2, CD137 on Jurkat NFkB reporter cells; test: cell-based or functional assay; remark: listed apart in the source
[9] = target: T2, CD137 on Jurkat NFkB reporter cells; test: cell-based or functional assay; remark: listed apart in the source
[10] = target: T2, CD137 on Jurkat NFkB reporter cells; test: cell-based or functional assay; remark: listed apart in the source
[11] = target: T2, CD137 on Jurkat NFkB reporter cells; test: cell-based or functional assay; remark: listed apart in the source
[12] = target: T2, CD137 on Jurkat NFkB reporter cells; test: cell-based or functional assay; remark: listed apart in the source
human PD-L1 on cells [13] = target: T1, human PD-L1 on cells; test: cell-based or functional assay; remark: listed apart in the source

Binder	IC50, NFAT-luciferase reporter gene assay (human PD-L1 on cells [2])	EC50 of IL-2 secretion, PBMC stimulated with SEA (human PD-L1 on cells [3])	EC50, NFkB-luciferase reporter, CHO-PD-L1 cells [5]	EC50, NFkB-luciferase reporter, CHO-PD-L1 cells [6]	EC50, NFkB-luciferase reporter, HCC827 cells without IFNg [7]	EC50, NFkB-luciferase reporter, HCC827 cells stimulated with IFNg [8]	EC50, NFkB-luciferase reporter, PD-L1 expressing CHO cells, 6h [9]	EC50, NFkB-luciferase reporter, PD-L1 expressing CHO cells, 6h, + HSA [9]	EC50, NFkB-luciferase reporter, PD-L1 expressing CHO cells, 24h [10]	EC50, NFkB-luciferase reporter, PD-L1 expressing CHO cells, 24h, + HSA [10]	EC50, NFkB-luciferase reporter, HCC827 with IFNy stimulation, 24h [11]	EC50, NFkB-luciferase reporter, HCC827 without IFNy stimulation, 24h [11]	max. activation (%), NF-kB reporter, CHO-PD-L1 [12]	max. activation (%), NF-kB reporter, HCC827 +IFNg [12]	max. activation (%), NF-kB reporter, HCC827 -IFNg [12]	further results
PRO997 (scFv, also called 37-20-B03sc01; PRO977) scFv: DIQMTQSPSSLSASVGDRVTITCQASQSIGTYLAWYQQKPGKAPKLLIYRAFILASGVPSRFSGSGSGTDFTLTISSLQPEDFATYYCQSNFYSDSTTIGPNAFGTGTKVTVLGGGGGSGGGGSGGGGSGGGGSQVQLQESGPGLVKPSETLSLTCKVSGFSFNSDYWIYWIRQPPGKGLEWIGSIYGGSSGNTQYASWAQGRVTISVDSSKNQFSLKLSSVTAADTAVYYCARGYVDYGGATDLWGQGTLVTVSS	0.0111 µg/mL	0.0409 µg/mL	–	–	–	–	–	–	–	–	–	–	–	–	–	fold higher potency on VH4 framework than on VH1 framework (PRO1013), NFAT reporter (human PD-L1 on cells [1]): ~2 fold; fold higher affinity against the STR graft of clone 33-03-G02 (PRO1126) [4]: ~2 fold
PRO951 (bispecific antibody) DIQMTQSPSSLSASVGDRVTITCQASQSINDYLAWYQQKPGKAPKLLIYKASTLASGVPSRFSGSGSGTDFTLTISSLQPEDFATYYCQQGYIITDIDNVFGTGTKVTVLGGGGGSEVQLVESGGGLVQPGGSLRLSCAASGFSFNNDYDMCWVRQAPGKGLEWIGCIDTGDGSTYYASWAKGRFTISRDNSKNTVYLQMNSLRAEDTAVYYCAREAASSSGYGMGYFDLWGQGTLVTVSSGGGGSGGGGSGGGGSGGGGSIQMTQSPSSLSASVGDRVTITCQSSQSVYDNNWLAWYQQKPGKAPKLLIYRASNLASGVPSRFSGSGSGTDFTLTISSLQPEDFATYYCQGTYLSSNWYWAFGTGTKVTVLGGGGGSQVQLQESGPGLVKPSETLSLTCKVSGFSFSSGYDMCWIRQPPGKGLEWIGCVVAGSVDITYYASWAKGRVTISVDSSKNQFSLKLSSVTAADTAVYYCARKDAYSDAFNLWGQGTLVTVSS	0.0885 µg/mL	–	0.0337 µg/mL	–	–	–	–	–	–	–	–	–	432%	–	–	–
PRO885 (bispecific antibody) DIQMTQSPSSLSASVGDRVTITCQASQSINDYLAWYQQKPGKAPKLLIYKASTLASGVPSRFSGSGSGTDFTLTISSLQPEDFATYYCQQGYIITDIDNVFGTGTKVTVLGGGGGSQVQLQESGPGLVKPSETLSLTCKVSGFSFSNSYWICWIRQPPGKGLEWIGCTFVGSSDSTYYANWAKGRVTISVDSSKNQFSLKLSSVTAADTAVYYCARHPSDAVYGYANNLWGQGTLVTVSSGGGGSGGGGSGGGGSGGGGSIQMTQSPSSLSASVGDRVTITCQASQSINNVLAWYQQKPGKAPKLLIYRASTLASGVPSRFSGSGSGTDFTLTISSLQPEDFATYYCQSSYGNYGDFGTGTKVTVLGGGGGSQVQLQESGPGLVKPSETLSLTCKVSGFSFSSGYDMCWIRQPPGKGLEWIGCVVAGSVDITYYASWAKGRVTISVDSSKNQFSLKLSSVTAADTAVYYCARKDAYSDAFNLWGQGTLVTVSS	0.137 µg/mL	0.0399 µg/mL	0.0117 µg/mL	0.00513 µg/mL and 0.00486 µg/mL and 0.0063 µg/mL	0.0115 µg/mL and 0.0131 µg/mL and 0.013 µg/mL	0.00927 µg/mL and 0.00888 µg/mL and 0.00923 µg/mL	0.00784 µg/mL	0.00792 µg/mL	0.0138 µg/mL	0.0149 µg/mL	0.00751 µg/mL	0.00952 µg/mL	499%	134%	111%	EC50 of IL-2 secretion, PBMC + CHO cells expressing PD-L1 (50000/well), anti-CD3 1 ug/ml (human PD-L1 on cells [13]): 0.0129 µg/mL; EC50 of IL-2 secretion, PBMC + CHO cells expressing PD-L1 (50000/well), anti-CD3 2 ug/ml (human PD-L1 on cells [13]): 0.052 µg/mL; EC50 of IL-2 secretion, PBMC + CHO cells expressing PD-L1 (100000/well), anti-CD3 1 ug/ml (human PD-L1 on cells [13]): 0.0862 µg/mL; EC50 of IL-2 secretion, PBMC + CHO cells expressing PD-L1 (100000/well), anti-CD3 2 ug/ml (human PD-L1 on cells [13]): 0.0419 µg/mL; EC50 of IL-2 secretion, PBMC + CHO cells expressing PD-L1 (200000/well), anti-CD3 1 ug/ml (human PD-L1 on cells [13]): 0.0806 µg/mL; EC50 of IL-2 secretion, PBMC + CHO cells expressing PD-L1 (200000/well), anti-CD3 2 ug/ml (human PD-L1 on cells [13]): 0.0301 µg/mL
PRO1124 (bispecific antibody) DIQMTQSPSSLSASVGDRVTITCQASQSINDYLAWYQQKPGKAPKLLIYKASTLASGVPSRFSGSGSGTDFTLTISSLQPEDFATYYCQQGYIITDIDNVFGTGTKVTVLGGGGGSQVQLQESGPGLVKPSETLSLTCKASGFSFSNSYWICWVRQPPGKGLEWIGCTFVGSSDSTYYANWAKGRVTISKDSSKNQVSLKLSSVTAADTAVYFCARHPSDAVYGYANNLWGQGTLVTVSSGGGGSGGGGSGGGGSGGGGSLQMTQSPSSLSASVGDRVTITCQASQSINNVLAWYQQKPGKPPKLLIYRASTLASGVPSRFSGSGSGTDFTLTISSLQPEDFATYYCQSSYGNYGDFGTGTKVTVLGGGGGSQVQLQESGPGLVKPSETLSLTCKVSGFSFSSGYDMCWIRQPPGKGLEWIGCVVAGSVDITYYASWAKGRVTISVDSSKNQFSLKLSSVTAADTAVYYCARKDAYSDAFNLWGQGTLVTVSS	–	–	–	0.00368 µg/mL	0.00562 µg/mL	0.00483 µg/mL	–	–	–	–	–	–	229%	188%	113%	–

Further lines, with some results ahead:

IC50, NFAT-luciferase reporter gene assay (human PD-L1 on cells [2])	EC50 of IL-2 secretion, PBMC stimulated with SEA (human PD-L1 on cells [3])	EC50, NFkB-luciferase reporter, CHO-PD-L1 cells [5]	EC50, NFkB-luciferase reporter, CHO-PD-L1 cells [6]	EC50, NFkB-luciferase reporter, HCC827 cells without IFNg [7]	EC50, NFkB-luciferase reporter, HCC827 cells stimulated with IFNg [8]	EC50, NFkB-luciferase reporter, PD-L1 expressing CHO cells, 6h [9]	EC50, NFkB-luciferase reporter, PD-L1 expressing CHO cells, 6h, + HSA [9]	EC50, NFkB-luciferase reporter, PD-L1 expressing CHO cells, 24h [10]	EC50, NFkB-luciferase reporter, PD-L1 expressing CHO cells, 24h, + HSA [10]	EC50, NFkB-luciferase reporter, HCC827 with IFNy stimulation, 24h [11]	EC50, NFkB-luciferase reporter, HCC827 without IFNy stimulation, 24h [11]	max. activation (%), NF-kB reporter, CHO-PD-L1 [12]	max. activation (%), NF-kB reporter, HCC827 +IFNg [12]	max. activation (%), NF-kB reporter, HCC827 -IFNg [12]	Binder	further results
–	–	0.0791 µg/mL	0.0795 µg/mL and 0.104 µg/mL and 0.0865 µg/mL	0.212 µg/mL and 0.11 µg/mL and 0.112 µg/mL	0.114 µg/mL and 0.145 µg/mL and 0.108 µg/mL	0.0565 µg/mL	0.0777 µg/mL	0.0466 µg/mL	0.0782 µg/mL	0.0528 µg/mL	0.0475 µg/mL	–	–	–	Urelumab (antibody, V domains shown) VH: QVQLQQWGAGLLKPSETLSLTCAVYGGSFSGYYWSWIRQSPEKGLEWIGEINHGGYVTYNPSLESRVTISVDTSKNQFSLKLSSVTAADTAVYYCARDYGPGNYDWYFDLWGRGTLVTVSS VL: EIVLTQSPATLSLSPGERATLSCRASQSVSSYLAWYQQKPGQAPRLLIYDASNRATGIPARFSGSGSGTDFTLTISSLEPEDFAVYYCQQRSNWPPALTFGGGTKVEIK	–
–	–	–	0.006 µg/mL	0.00697 µg/mL	0.00548 µg/mL	–	–	–	–	–	–	242%	208%	135%	PRO1126 (bispecific antibody) DFQLTQSPSSLSASVGDRVTITCQASQSINDYLAWYQQKPGKSPKLLIYKASTLASGVPSRFSGSGSGTDFTLTISSLQPEDFATYYCQQGYIITDIDNVFGTGTKVTVLGGGGGSQVQLQESGPGLVKPSETLSLTCKVSGFSFSNSYWICWIRQPPGKGLEWIGCTFVGSSDSTYYANWAKGRVTISVDSSKNQFSLKLSSVTAADTAVYYCARHPSDAVYGYANNLWGQGTLVTVSSGGGGSGGGGSGGGGSGGGGSIQMTQSPSSLSASVGDRVTITCQASQSINNVLAWYQQKPGKAPKLLIYRASTLASGVPSRFSGSGSGTDFTLTISSLQPEDFATYYCQSSYGNYGDFGTGTKVTVLGGGGGSQSQLQESGPGLVKPSETLSLTCKASGFSFSSGYDMCWVRQPPGKGLEWIACVVAGSVDITYYASWAKGRVTISKDSSKNQVSLKLSSVTAADTAVYFCARKDAYSDAFNLWGQGTLVTVSS	IC50, NFAT-luciferase reporter gene assay (human PD-L1 on cells [1]): 0.0481 µg/mL; fold improvement of neutralization potency against PRO885, NFAT reporter (human PD-L1 on cells [1]): 3 fold
